From patent publication US20240361328A1 come the findings set out here.

Experiment [1] deals with anti-CD19 CAR (clone FMC63), second-generation, C-terminal meGFP (human) (UniProt P01732). As to the kind of experiment: flow cytometry specificity staining, matched CAR cells. For orientation: Flow cytometry measures light scatter and fluorescence of single cells or particles in a stream.
For experiment [2] the target is unchanged. Description: flow cytometry staining titration, dose-response fit.
For experiment [3] the target is unchanged. As to the kind of experiment: flow cytometry staining titration, CAR-transduced Jurkat cells.
The target is the same in experiment [4]. Description: flow cytometry spike-in assay, 'Low Clone' and 'Mid Clone' anti-CD19 CAR-meGFP cells among mCherry non-CAR cells.
Experiment [5] has the same target. Description: flow cytometry staining titration, anti-CD19 CAR-transduced Jurkat cells.
The target is the same in experiment [6]. Description: magnetic selection with APC-labeled multimer and anti-APC magnetic particles, 'Low Clone'.
Experiment [7] shares this target. As to the kind of experiment: cell-based or functional assay.
For experiment [8] the target is unchanged. As to the kind of experiment: flow cytometry staining titration, αCD19-CAR-transduced Jurkat cells.
Experiment [9] shares this target. As to the kind of experiment: magnetic selection with APC-labeled multimer and anti-APC magnetic particles, 'Mid Clone'.
Experiment [10] has the same target. Description: flow cytometry spike-in assay, 'Mid Clone' at 10%.

With “CD19 antigen-dodecamer (from UniProt P22629 37-163)”, the percent of CAR-expressing cells detected in experiment [1] was more than 90%. Moreover, the fold staining efficiency (1/EC50) against anti FMC63 antibody in experiment [2] stood at 40 fold. This substance came in with a percent of target cells detected at the maximum concentration in [3] of more than 92%. In addition, in experiment [4], the sensitivity was more than 90%. Moreover, the efficiency of detection against antigen-monomer in [5] came out at 25 % higher. Moreover, in experiment [6], the percent of CAR+ cells retained in the column worked out at 35%. In experiment [7], this substance gave a CAR-T cells as percent of total cell population (49% without multimer) of 70%, a CD69+CD25+ cells in CD4+ CAR-T cell sub-population (17% without multimer) of 28%, a CD69+CD25+ cells in CD8+ CAR-T cell sub-population (5% without multimer) of 38% and a PD-1+ CAR-T cells in CD4+ CAR-T cell sub-population (25% without multimer) of 25%. In experiment [7], the PD-1+ CAR-T cells in CD8+ CAR-T cell sub-population (2% without multimer) stood at 6%. The percent of CD19 CAR-expressing cells detected at saturated concentrations in experiment [8] is 90%. Also, in experiment [9], the percent of CAR+ cells retained in the column was 55%.
As for “CD19 antigen-streptavidin tetramer (from UniProt P22629 37-163)”, the percent of CAR-expressing cells detected in experiment [1] is more than 90%. For the same substance, the fold staining efficiency (1/EC50) against anti FMC63 antibody in experiment [2] was 8 fold. Also, the percent of target cells detected at the maximum concentration in experiment [3] was more than 92%. Moreover, the sensitivity in experiment [4] was more than 90%. In addition, the efficiency of detection against antigen-monomer in experiment [5] was found to be 25 % higher. Also, the percent of CAR+ cells retained in the column in experiment [6] was 35%. In experiment [7], this substance had a CAR-T cells as percent of total cell population (49% without multimer) of 61%, a CD69+CD25+ cells in CD4+ CAR-T cell sub-population (17% without multimer) of 26%, a CD69+CD25+ cells in CD8+ CAR-T cell sub-population (5% without multimer) of 28% and a PD-1+ CAR-T cells in CD4+ CAR-T cell sub-population (25% without multimer) of 26%. Further, in experiment [7], the PD-1+ CAR-T cells in CD8+ CAR-T cell sub-population (2% without multimer) is 6%. In addition, in experiment [8], the percent of CD19 CAR-expressing cells detected at saturated concentrations is 93%. In [9], this substance yielded a percent of CAR+ cells retained in the column of 55%.
The substance “Protein L (Thermo Fisher Scientific, 29997)” displayed a percent of cells detected in [10] of 90%.
